Laboratory results: article doi:10.1101/2020.02.01.930206 (bioRxiv, 2020)
One block for each binder: values may come before it.

Tests used:
crystal structure = molecular target: the molecule itself; test: crystal structure
full-length mouse MMS19 = molecular target: T1, full-length mouse MMS19 (mouse, UniProt Q9D071 1-1031); test: crystal structure
T1 sequence: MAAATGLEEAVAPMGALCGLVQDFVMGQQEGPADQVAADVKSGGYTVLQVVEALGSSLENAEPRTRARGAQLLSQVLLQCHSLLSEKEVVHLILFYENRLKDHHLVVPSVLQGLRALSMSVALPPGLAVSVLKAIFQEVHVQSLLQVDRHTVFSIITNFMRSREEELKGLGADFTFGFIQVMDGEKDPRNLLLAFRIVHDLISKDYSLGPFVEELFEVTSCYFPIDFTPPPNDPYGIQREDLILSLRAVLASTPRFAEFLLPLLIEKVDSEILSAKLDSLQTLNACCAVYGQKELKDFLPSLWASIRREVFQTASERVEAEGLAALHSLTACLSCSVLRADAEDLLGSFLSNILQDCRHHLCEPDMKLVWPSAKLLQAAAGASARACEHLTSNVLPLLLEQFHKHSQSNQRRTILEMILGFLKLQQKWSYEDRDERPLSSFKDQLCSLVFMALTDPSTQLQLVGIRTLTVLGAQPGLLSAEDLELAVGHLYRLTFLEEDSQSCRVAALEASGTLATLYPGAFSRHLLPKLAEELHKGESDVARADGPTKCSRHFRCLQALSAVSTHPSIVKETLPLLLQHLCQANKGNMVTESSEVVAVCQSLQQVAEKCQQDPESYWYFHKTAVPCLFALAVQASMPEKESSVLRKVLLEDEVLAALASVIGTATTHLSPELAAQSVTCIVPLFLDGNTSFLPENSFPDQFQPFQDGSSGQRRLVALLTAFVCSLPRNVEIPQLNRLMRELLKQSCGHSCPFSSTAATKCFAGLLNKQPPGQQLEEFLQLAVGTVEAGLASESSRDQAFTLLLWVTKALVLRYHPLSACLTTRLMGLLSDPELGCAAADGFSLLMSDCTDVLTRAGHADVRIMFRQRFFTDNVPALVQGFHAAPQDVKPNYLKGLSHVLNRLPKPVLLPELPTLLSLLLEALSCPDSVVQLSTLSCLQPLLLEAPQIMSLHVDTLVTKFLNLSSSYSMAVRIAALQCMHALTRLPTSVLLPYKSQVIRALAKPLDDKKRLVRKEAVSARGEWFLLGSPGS

[1] = molecular target: T2, Drosophila melanogaster CIAO1 (Drosophila melanogaster, UniProt Q7K1Y4 1-335); test: crystal structure
T2 sequence: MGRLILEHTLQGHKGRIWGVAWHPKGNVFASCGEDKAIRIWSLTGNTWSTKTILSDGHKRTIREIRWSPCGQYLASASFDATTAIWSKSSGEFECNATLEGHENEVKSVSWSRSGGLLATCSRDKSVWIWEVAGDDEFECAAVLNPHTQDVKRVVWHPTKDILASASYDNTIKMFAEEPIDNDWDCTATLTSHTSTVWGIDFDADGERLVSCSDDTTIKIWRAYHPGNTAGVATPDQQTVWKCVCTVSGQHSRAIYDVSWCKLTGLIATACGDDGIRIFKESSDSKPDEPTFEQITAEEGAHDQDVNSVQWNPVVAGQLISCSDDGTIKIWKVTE

[2] = molecular target: the molecule itself; test: negative-stain electron microscopy
[3] = molecular target: human CIAO1-CIAO2B core complex (human, UniProt O76071;Q9Y3D0); test: ITC
Sequence of human CIAO1-CIAO2B core complex (O76071 whole entry, one chain of several): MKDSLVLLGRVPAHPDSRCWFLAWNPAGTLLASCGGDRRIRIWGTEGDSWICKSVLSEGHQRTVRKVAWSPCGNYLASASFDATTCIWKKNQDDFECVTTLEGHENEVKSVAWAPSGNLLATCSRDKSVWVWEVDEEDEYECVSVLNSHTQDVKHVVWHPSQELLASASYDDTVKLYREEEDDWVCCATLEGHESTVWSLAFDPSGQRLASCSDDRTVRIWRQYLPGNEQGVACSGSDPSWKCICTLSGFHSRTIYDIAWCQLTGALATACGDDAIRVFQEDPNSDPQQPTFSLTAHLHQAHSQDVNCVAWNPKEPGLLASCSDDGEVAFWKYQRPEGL

B1: Drosophila melanogaster CIAO2B (natural protein)
chain: MPTEIENINPNVYDRIKERVLTANEEDENVPDPFDKREIFDLIRNINDPEHPLTLEELHVVQEDLIRINDSQNSVHISFTPTIPHCSMATLIGLSIRVKLLRSLPPRFKVTVEITPGTHASELAVNKQLADKERVAAALENNHLAEVINQCIAAKG
binding result (crystal structure): binds | binding result (full-length mouse MMS19): binds | binding result [1]: binds

B3: all-mouse CIA targeting complex (MmMMS19-MmCIAO1-CIAO2B) (complex)
chain 1: T1 sequence
chain 2: not shown
chain 3: MVGGGGSGGGLLENANPLIYERSGERPVTAGEEDEEVPDSIDAREIFDLIRSINDPEHPLTLEELNVVEQVRIQVSDPESTVAVAFTPTIPHCSMATLIGLSIKVKLLRSLPQRFKMDVHITPGTHASEHAVNKQLADKERVAAALENTHLLEVVNQCLSARS
binding result [2]: binds

More lines, now with the values ahead:

binding result (full-length mouse MMS19): binds
B2: Drosophila melanogaster CIAO1-CIAO2B core complex (complex)
chain 1: T2 sequence
chain 2: B1 chain

Kd [3]: 3.1 µM
B4: human primase small subunit PriS (natural protein)
chain: METFDPTELPELLKLYYRRLFPYSQYYRWLNYGGVIKNYFQHREFSFTLKDDIYIRYQSFNNQSDLEKEMQKMNPYKIDIGAVYSHRPNQHNTVKLGAFQAQEKELVFDIDMTDYDDVRRCCSSADICPKCWTLMTMAIRIIDRALKEDFGFKHRLWVYSGRRGVHCWVCDESVRKLSSAVRSGIVEYLSLVKGGQDVKKKVHLSEKIHPFIRKSINIIKKYFEEYALVNQDILENKESWDKILALVPETIHDELQQSFQKSHNSLQRWEHLKKVASRYQNNIKNDKYGPWLEWEIMLQYCFPRLDINVSKGINHLLKSPFSVHPKTGRISVPIDLQKVDQFDPFTVPTISFICRELDAISTNEEEKEENEAESDVKHRTRDYKKTSLAPYVKVFEHFLENLDKSRKGELLKKSDLQKDF
